Target: the molecule itself
Assay: cryo-EM structure

B1: mouse TRPC5 construct lacking the C-terminal 210 residues (a.a. 1-765) (domain or fragment, UniProt Q9QX29 1-765, looked up)
chain: MAQLYYKKVNYSPYRDRIPLQIVRAETELSAEEKAFLSAVEKGDYATVKQALQEAEIYYNVNINCMDPLGRSALLIAIENENLEIMELLLNHSVYVGDALLYAIRKEVVGAVELLLSYRKPSGEKQVPTLMMDTQFSEFTPDITPIMLAAHTNNYEIIKLLVQKRVTIPRPHQIRCNCVECVSSSEVDSLRHSRSRLNIYKALASPSLIALSSEDPILTAFRLGWELKELSKVENEFKAEYEELSQQCKLFAKDLLDQARSSRELEIILNHRDDHSEELDPQKYHDLAKLKVAIKYHQKEFVAQPNCQQLLATLWYDGFPGWRRKHWVVKLLTCMTIGFLFPMLSIAYLISPRSNLGLFIKKPFIKFICHTASYLTFLFMLLLASQHIVRTDLHVQGPPPTVVEWMILPWVLGFIWGEIKEMWDGGFTEYIHDWWNLMDFAMNSLYLATISLKIVAYVKYNGSRPREEWEMWHPTLIAEALFAISNILSSLRLISLFTANSHLGPLQISLGRMLLDILKFLFIYCLVLLAFANGLNQLYFYYETRAIDEPNNCKGIRCEKQNNAFSTLFETLQSLFWSVFGLLNLYVTNVKARHEFTEFVGATMFGTYNVISLVVLLNMLIAMMNNSYQLIADHADIEWKFARTKLWMSYFDEGGTLPPPFNIIPSPKSFLYLGNWFNNTFCPKRDPDGRRRRHNLRSFTERHADSLIQNQHYQEVIRNLVKRYVAAMIRNSKTNEGLTEENFKELKQDISSFRYEVLDLLGNRK
stoichiometry N: 4
